Experimental data as given in patent publication US20210130473A1 (SILVERBACK THERAPEUTICS, published 2021).
Positions count from the first letter of the chain named. In names and notes the source's numbering stands. Values belong to the binder of their own block, whether it stands above or below them.

Key:
[1] = biological target: T1, human ASGR1 (asialoglycoprotein receptor 1) on cells (human, UniProt P07306 1-291); test: competition flow cytometry on CHO-S cells with human ASGR1; 200 nM F(ab')2 against 33 nM GalNac-hFc
T1 construct: whole, on cells; also called HepG2 cells; CHO-S cells transfected with human ASGR1 full length DNA
T1 sequence (looked up): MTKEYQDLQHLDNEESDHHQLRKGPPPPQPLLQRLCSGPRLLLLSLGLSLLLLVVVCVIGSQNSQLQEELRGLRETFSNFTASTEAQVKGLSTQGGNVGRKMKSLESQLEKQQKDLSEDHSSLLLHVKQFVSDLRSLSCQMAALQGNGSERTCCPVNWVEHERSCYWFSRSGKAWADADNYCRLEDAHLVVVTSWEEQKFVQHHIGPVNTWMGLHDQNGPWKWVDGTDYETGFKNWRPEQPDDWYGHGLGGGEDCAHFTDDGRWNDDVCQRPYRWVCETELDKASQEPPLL

[2] = biological target: T1, human ASGR1 (asialoglycoprotein …); test: Guava flow cytometry screen on HepG2 cells
[3] = biological target: T2, Cynomolgus macaque ASGR1 on CHO-S cells (Cynomolgus macaque); test: Guava flow cytometry on CHO-S cells expressing cynomolgus ASGR1 (repeat of Table 15)
T2 construct: whole, on cells; also called Cynomologous ASGR1
Description: (§1) Anti-human ASGR1 antibodies of this disclosure were examined for cross-reactivity with Cynomolgus macaque and rat ASGR1. Briefly, sequence encoding Cynomolgus macaque or rat ASGR1 was transiently transfected into CHO-S cells. Transfected cells were before performing cell binding assay. A total of about 1.5×10⁴ transfected cells/well were added to 96-well V-bottom assay plate, incubated at 37° C., 5% CO2 for 48-72 hours, and then washed with culture medium before adding 100 μl of each ASGR1 antibody at different concentrations starting from 100 nM and 3-fold dilutions to a total of eight wells. The cells with antibody were incubated for 40 minutes at 4° C., then washed three times with 200 μl of fresh culture medium. To each well was added 50 μl PE conjugated goat anti-human Fc (SouthemBiotech) at 1:200 dilution in culture medium and then incubated at 4° C. for 20 minutes. After washing the plate once, the treated cells were resuspended in 200 μl culture medium and then the stained cells were analyzed on GUAVA® using Incyte software.

[4] = biological target: T2, Cynomolgus macaque ASGR1 on CHO-S cells; test: Guava flow cytometry on CHO-S cells expressing cynomolgus ASGR1
Description: as §1

[5] = biological target: T1, human ASGR1 (asialoglycoprotein …); test: flow cytometry on HepG2 cells, anti-human IgG PE secondary, MFI (Geo Mean)
Description: Briefly, 5×10⁴ HepG2 cells/well were contacted with titrating concentrations of anti-ASGR1 antibodies in FACS Buffer (FB: PBS+2% FBS+1 mM CaCl₂)) for 30 minutes at 4° C. Cells were washed twice in FB, then incubated in anti-human IgG PE secondary for 30 minutes at 4° C. Cells were washed twice in FB, then analyzed by flow cytometry.

B2: hzL4L-5 (antibody, IgG1, V domains shown)
VH: QVQLQESGPGLVKPSQTLSLTCTVSGYSISSDYAWNWIRQHPGKGLEWIGYISYSGSTRYNPSLKSRISITRDTSKNQFSLKLSSVTAADTAVYYCARRYRYDEGYGMDYWGQGTTVTVSS
VL: DIQMTQSPSSLSASVGDRVTITCRASENIYSNLAWYQQKPGKAPKLLIYAATNLADGVPSRFSGSGSGTDFTLTISSLQPEDFATYYCQHFWGTPPWTFGGGTKVEIK
notes: IgG1, kappa
binding result [2]: binds

B3: hzL4L-2 (antibody, IgG1, V domains shown)
VH: B2 VH with Y27G, S30T
VL: B2 VL
notes: IgG1, kappa
binding result [2]: binds

B5: hzL4L-10 (antibody, IgG1, V domains shown)
VH: B2 VH with S30T
VL: B2 VL with D56S
notes: IgG1, kappa
binding result [2]: binds

B9: F(ab')2 fragment of G2D (F(ab')2)
VH: EVQLQQSGPELVKPGASVKISCKASGYSFTGYYMHWVKQSHVKSLEWIGRINPNNGATNYNQNFKDKASLTVDKSSSTAYMEFHSLTSEDSAVYYCTSVNFYYWGQGTTLTVSS
VL: DIKMTQSPSSMYASLGERVTITCKASQVINSYLSWFQQKPGKSPETLIYRANTLVDGVPSRFSGSGSGQDYSLTISSLEYEDLGIYYCLQYAEFPYTFGGGTKLEIK
% Blocking GalNac Binding [1]: -0.3%

B10: F(ab')2 fragment of K2E (F(ab')2)
VH: QVQLQQSAAELARPGASVKMSCKASGYTFTSYTMHWVKQRPGQGLEWIGYISPSSGYTEYNQKFKDKTTLTADKSSSTAYMQLSSLTSEDSAVYYCARKFDYWGQGTTLTVSS
VL: B9 VL with V28D, E45K, T53R, Y71F, L83M, A92D, Y96F, G100S
% Blocking GalNac Binding [1]: 10%

B11: F(ab')2 fragment of hzH8K-1 (F(ab')2)
VH: QVQLQESGPGLVKPSQTLSLTCTVSGGSISSDYAWNWIRQHPGKGLEWIGYRSYRGSTSYNPSLKSRVTISVDTSKNQFSLKLSSVTAADTAVYYCARRGYYGSSSHWYFDVWGQGTTVTVSS
VL: DIQMTQSPSSLSASVGDRVTITCRASENIYSYLAWYQQKPGKAPKLLIYNAKTLAEGVPSRFSGSGSGTDFTLTISSLQPEDFATYYCQHHYGTPLTFGGGTKVEIK
% Blocking GalNac Binding [1]: 81.3%

Other lines, results leading:

% Blocking GalNac Binding [1]: -32.1%
B1: F(ab')2 fragment of J4F (F(ab')2)
VH: QVQLQQSGDDLVKPGASVKLSCKASGYTFTSYWINWIKQRPGQGLEWIGRIVPGSGSTYYNEMFKDKATLTVDTSSSTAYIQLSSLSSEDSAVYFCARKPNFDVWGAGTTVTVSS
VL: DIVMTQSQKFMSTSVGDRVSVTCKASQNVGTNVAWYQQKPGQSPKAVIYSASYRFSGVPDRLTGSGSGTDFTLTITNVQSEDLAEYFCQQYNSYPLTFGAGTKLELK

binding result [2]: binds
B4: hzL4L-6 (antibody, IgG1, V domains shown)
VH: B2 VH with S30T, I68V, S69T
VL: B2 VL
notes: IgG1, kappa

% Blocking GalNac Binding [1]: 90.7%
B6: F(ab')2 fragment of hzL4L-14 (F(ab')2)
VH: B2 VH with I68V, S69T
VL: B2 VL with D56E

EC50 [3]: 2.35 nM
EC50 [4]: 2.35 nM
EC50 (read off the curve) [5]: ~0.3 µg/mL
B7: ASGR1 mAb-C (antibody, V domains shown)
VH: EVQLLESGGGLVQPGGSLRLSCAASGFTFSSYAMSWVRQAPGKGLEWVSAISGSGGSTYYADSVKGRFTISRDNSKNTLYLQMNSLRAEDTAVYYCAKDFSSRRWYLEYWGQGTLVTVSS
VL: SSELTQDPAVSVALGQTVRITCQGDSLRSYYASWYQQKPGQAPVLVIYGKNNRPSGIPDRFSGSSSGNTASLTITGAQAEDEADYYCNSLERIGYLSYVFGGGTKLTVL
notes: control with CDRs of anti-ASGR1 antibody 4F3; mouse IgG2a or human IgG1 isotype by assay; also called 4F3

% Blocking GalNac Binding [1]: -5.4%
B8: F(ab')2 fragment of ASGR1 mAb-C (F(ab')2)
VH: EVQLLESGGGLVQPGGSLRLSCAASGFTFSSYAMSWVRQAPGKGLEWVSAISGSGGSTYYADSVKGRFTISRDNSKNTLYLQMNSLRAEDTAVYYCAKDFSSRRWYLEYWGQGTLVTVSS
VL: B7 VL
modifications: F(ab')2 fragment: two Fab arms joined at the hinge, with the Fc removed.
